Data set [1] addresses T1, Pum PUM-HD WT (EMSA) (UniProt P25822 1091-1426).
T1 sequence: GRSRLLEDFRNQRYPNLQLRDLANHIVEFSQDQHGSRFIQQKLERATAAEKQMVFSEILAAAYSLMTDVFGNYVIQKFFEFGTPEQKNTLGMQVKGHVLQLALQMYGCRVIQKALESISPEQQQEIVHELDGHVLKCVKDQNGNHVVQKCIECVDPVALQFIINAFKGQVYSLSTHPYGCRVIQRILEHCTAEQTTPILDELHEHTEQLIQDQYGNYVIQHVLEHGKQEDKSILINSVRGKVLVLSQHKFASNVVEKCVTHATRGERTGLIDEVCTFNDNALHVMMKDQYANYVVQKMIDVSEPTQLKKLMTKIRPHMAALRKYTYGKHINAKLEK
Briefly: EMSA; EMSA: 50 mM Tris-HCl pH 7.6, 150 mM NaCl, 2 mM DTT, 2 ug/mL BSA, 0.01% Igepal CA-630, 0.02% bromophenol blue, 20% glycerol, 3 h at 4 C; 1 nM Cy5 RNA or 0.3 nM 32P RNA. As to conditions: protein: recombinant; tags: N-terminal 3xFLAG; Halo-tag removed by TEV; label: 5' Cy5. (In EMSA bound probe runs differently from free probe, usually more slowly.)

A further data set concerns the target T2, Nos ZC WT (EMSA) (UniProt P25724 289-401).
T2 sequence: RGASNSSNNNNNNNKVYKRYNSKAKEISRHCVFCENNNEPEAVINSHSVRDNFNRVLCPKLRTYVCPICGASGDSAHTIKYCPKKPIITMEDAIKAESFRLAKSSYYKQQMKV
Briefly: EMSA; up to 1 uM Nos ZC; EMSA: 50 mM Tris-HCl pH 7.6, 150 mM NaCl, 2 mM DTT, 2 ug/mL BSA, 0.01% Igepal CA-630, 0.02% bromophenol blue, 20% glycerol, 3 h at 4 C; 1 nM Cy5 RNA or 0.3 nM 32P RNA. As to conditions: protein: recombinant; tags: C-terminal V5; Halo-tag removed by TEV; label: 5' Cy5.

In a further data set the target is T3, Pum F1367S (UniProt P25822 1091-1426, F1367S).
T3 sequence: T1 sequence with F277S
Briefly: EMSA; RNA label form not stated; EMSA: 50 mM Tris-HCl pH 7.6, 150 mM NaCl, 2 mM DTT, 2 ug/mL BSA, 0.01% Igepal CA-630, 0.02% bromophenol blue, 20% glycerol, 3 h at 4 C; 1 nM Cy5 RNA or 0.3 nM 32P RNA. As to conditions: protein: recombinant; tags: N-terminal 3xFLAG; Halo-tag removed by TEV; label: 5' Cy5.

The target of the next data set is T4, Pum Q1337A (UniProt P25822 1091-1426, Q1337A).
T4 sequence: T1 sequence with Q247A
Described as above. As to conditions: protein: recombinant; tags: N-terminal 3xFLAG; Halo-tag removed by TEV; label: 5' Cy5.

In data set [2] the target is T5, Pum PUM-HD WT (EMSA);Nos ZC WT (EMSA) (Drosophila melanogaster?;Drosophila …, UniProt P25822;P25724 1091-1426;289-401, |).
T5 sequence 1: T1 sequence
T5 sequence 2: T2 sequence
The experiment in a line: EMSA; Nos ZC titrated at 100 nM Pum; high affinity, Kd only in figure; EMSA: 50 mM Tris-HCl pH 7.6, 150 mM NaCl, 2 mM DTT, 2 ug/mL BSA, 0.01% Igepal CA-630, 0.02% bromophenol blue, 20% glycerol, 3 h at 4 C; 1 nM Cy5 RNA or 0.3 nM 32P RNA. As to conditions: protein: recombinant;recombinant, tags: N-terminal 3xFLAG, Halo-tag removed by TEV;C-terminal V5, copies: 1;1, label: 5' Cy5.

The target in data set [3] is T5, Pum PUM-HD WT (EMSA);Nos ZC WT (EMSA). Briefly: EMSA; Pum titrated, 400 nM Nos ZC constant; EMSA: 50 mM Tris-HCl pH 7.6, 150 mM NaCl, 2 mM DTT, 2 ug/mL BSA, 0.01% Igepal CA-630, 0.02% bromophenol blue, 20% glycerol, 3 h at 4 C; 1 nM Cy5 RNA or 0.3 nM 32P RNA. As to conditions: protein: recombinant;recombinant, tags: N-terminal 3xFLAG, Halo-tag removed by TEV;C-terminal V5, copies: 1;1, label: 5' 32P (EMSA), none (crystal).

In data set [4] the target is T1, Pum PUM-HD WT (EMSA). The experiment in a line: EMSA; Pum alone; Kd printed only in figure; EMSA: 50 mM Tris-HCl pH 7.6, 150 mM NaCl, 2 mM DTT, 2 ug/mL BSA, 0.01% Igepal CA-630, 0.02% bromophenol blue, 20% glycerol, 3 h at 4 C; 1 nM Cy5 RNA or 0.3 nM 32P RNA. As to conditions: protein: recombinant; tags: N-terminal 3xFLAG; Halo-tag removed by TEV; label: 5' 32P (EMSA); none (crystal).

Changes are numbered by the printed parent chain.

B1: Cy5-hb NRE2 RNA (ssRNA)
RNA: UUGUUGUCGAAAAUUGUACAUAAGCC
Turning to B1, the binding result with Pum PUM-HD WT (EMSA) [1] was “binds”; with Nos ZC WT (EMSA), “no binding”; with Pum F1367S, “binds”; in the data set with Pum Q1337A, “binds”; in data set [2], “binds”.

B2: hb NRE2 RNA 16-nt (ssRNA)
RNA: AAAUUGUACAUAAGCC
One may read the Kd as a measure of binding affinity in units of concentration. Take B2: the Kd in data set [3] is 8.7 nM. Besides, the “fold weaker RNA-binding affinity (Kd ratio)” value in the data set with Pum PUM-HD WT (EMSA) [4] was 3 fold weaker than with Nos ZC.

Source of the values: paper PMC4995099, “Drosophila Nanos acts as a molecular clamp that modulates the RNA-binding and repression activities of Pumilio”.
